# What was measured:
# [1] = biological target: Alexa Fluor 546-E. coli SSB (S92C) (Escherichia coli, UniProt P0AGE0 SEQ:1-177, S92C); assay: 25 mM Tris pH 7.5, 200 mM NaCl, 30 C; conditions: tags: Alexa Fluor 546 label on Cys92; chain copies: 4 (stated, tetramer)
# Experimental: (§1) In order to obtain a molecule suitable for solution measurements, a suitably large fluorescence increase on binding DNA, together with reasonably bright fluorescence quantum yield are the main criteria. Fluorescence spectra of 250 nM labeled E. coli SSB (tetramer concentration) were measured at 30° C. in 25 mM Tris.HCl pH 7.5, 200 mM NaCl, 1 mM DTT, and 5 μM bovine serum albumin.
# (§2) Excitation was at the appropriate wavelength for the fluorophore and the emission intensities at the maximum were measured in the absence and presence of saturating dT₇₀. The two coumarins, IDCC and MDCC gave the largest fluorescence enhancement with G26C and this mutant protein labeled with IDCC, IDCC-E. coli SSB, was chosen for further study for two reasons. Firstly it gave consistently a larger increase than MDCC. […] In the case of MDCC, reaction of its maleimide with a protein cysteine causes the production of diastereoisomers. […] In contrast, reaction of IDCC with a thiol should produce only a single molecular species.
# MDCC-E. coli SSB (S92C) = MDCC-E. coli SSB (S92C) (Escherichia coli, UniProt P0AGE0 SEQ:1-177, S92C); assay: 25 mM Tris pH 7.5, 200 mM NaCl, 30 C; conditions: tags: MDCC label on Cys92; chain copies: 4 (stated, tetramer)
# Experimental: as §1, §2
# [2] = biological target: 6-IATR-E. coli SSB (G26C) (Escherichia coli, UniProt P0AGE0 SEQ:1-177, G26C); assay: 25 mM Tris pH 7.5, 200 mM NaCl, 30 C; conditions: tags: 6-IATR label on Cys26; chain copies: 4 (stated, tetramer)
# Experimental: as §1, §2
# MIANS-E. coli SSB (S92C) = MIANS-E. coli SSB (S92C) (Escherichia coli, UniProt P0AGE0 SEQ:1-177, S92C); assay: 25 mM Tris pH 7.5, 200 mM NaCl, 30 C; conditions: tags: MIANS label on Cys92; chain copies: 4 (stated, tetramer)
# Experimental: as §1, §2
# [3] = biological target: Alexa Fluor 488-E. coli SSB (G26C) (Escherichia coli, UniProt P0AGE0 SEQ:1-177, G26C); assay: 25 mM Tris pH 7.5, 200 mM NaCl, 30 C; conditions: tags: Alexa Fluor 488 label on Cys26; chain copies: 4 (stated, tetramer)
# Experimental: as §1, §2
# [4] = biological target: Alexa Fluor 546-E. coli SSB (G26C) (Escherichia coli, UniProt P0AGE0 SEQ:1-177, G26C); assay: 25 mM Tris pH 7.5, 200 mM NaCl, 30 C; conditions: tags: Alexa Fluor 546 label on Cys26; chain copies: 4 (stated, tetramer)
# Experimental: as §1, §2
# IDCC-E. coli SSB (S92C) = IDCC-E. coli SSB (S92C) (Escherichia coli, UniProt P0AGE0 SEQ:1-177, S92C); assay: 25 mM Tris pH 7.5, 200 mM NaCl, 30 C; conditions: tags: IDCC label on Cys92; chain copies: 4 (stated, tetramer)
# Experimental: as §1, §2
# [5] = biological target: 6-IATR-E. coli SSB (S92C) (Escherichia coli, UniProt P0AGE0 SEQ:1-177, S92C); assay: 25 mM Tris pH 7.5, 200 mM NaCl, 30 C; conditions: tags: 6-IATR label on Cys92; chain copies: 4 (stated, tetramer)
# Experimental: as §1, §2
# [6] = biological target: Alexa Fluor 488-E. coli SSB (S92C) (Escherichia coli, UniProt P0AGE0 SEQ:1-177, S92C); assay: 25 mM Tris pH 7.5, 200 mM NaCl, 30 C; conditions: tags: Alexa Fluor 488 label on Cys92; chain copies: 4 (stated, tetramer)
# Experimental: as §1, §2
# IDCC-E. coli SSB (G26C) [7] = biological target: T1, IDCC-E. coli SSB (G26C) (Escherichia coli, UniProt P0AGE0 SEQ:1-177, G26C (mature protein numbering as printed)); assay: 25 mM Tris pH 7.5, 200 mM NaCl, 30 C; conditions: tags: IDCC diethylaminocoumarin label on Cys26; chain copies: 4 (stated, tetramer)
# Experimental: as §1, §2
# MDCC-E. coli SSB (G26C) = MDCC-E. coli SSB (G26C) (Escherichia coli, UniProt P0AGE0 SEQ:1-177, G26C); assay: 25 mM Tris pH 7.5, 200 mM NaCl, 30 C; conditions: tags: MDCC label on Cys26; chain copies: 4 (stated, tetramer)
# Experimental: as §1, §2
# IDCC-E. coli SSB (G26C) [8] = biological target: T1, IDCC-E. coli SSB (G26C); assay: competition; ratio Kd(IDCC-SSB)/Kd(unlabeled SSB); 200 mM NaCl, 30 C; conditions: tags: IDCC diethylaminocoumarin label on Cys26; chain copies: 4 (stated, tetramer)
# Experimental: as §1
# (§3) In order to determine the effect of labeling on the affinity of E. coli SSB for ssDNA, dT₇₀ was titrated into a mixture of unlabeled E. coli SSB and IDCC-E. coli SSB (FIG. 4). It is apparent that low concentrations of DNA bind mainly to the unlabeled E. coli SSB, as there is only a small increase in fluorescence. This implies that the unlabeled protein has the higher affinity.
# [9] = biological target: unlabeled E. coli SSB (S92C) (Escherichia coli, UniProt P0AGE0 SEQ:1-177, S92C (mature protein numbering as printed)); assay: competition; binds dT70 28-fold more tightly than IDCC-SSB; conditions: chain copies: 4 (stated, tetramer)
# Experimental: as §1, §3
# [10] = biological target: 6-IATR-E. coli SSB (W88C) (Escherichia coli, UniProt P0AGE0 SEQ:1-177, W88C (mature protein numbering as printed)); assay: tight binding, saturates at 1:1 dT70:tetramer; 200 mM NaCl; conditions: tags: 6-IATR rhodamine label on Cys88; chain copies: 4 (stated, tetramer)
binder,measurement,setting,value
dT70 (ssDNA) DNA: TTTTTTTTTTTTTTTTTTTTTTTTTTTTTTTTTTTTTTTTTTTTTTTTTTTTTTTTTTTTTTTTTTTTTT,activity,[1],1.5 fluorescence ratio +/- dT70
same,activity,MDCC-E. coli SSB (S92C),2.2 fluorescence ratio +/- dT70
same,activity,[2],2.8 fluorescence ratio +/- dT70
same,activity,MIANS-E. coli SSB (S92C),0.4 fluorescence ratio +/- dT70
same,activity,[3],3.3 fluorescence ratio +/- dT70
same,activity,[4],2.3 fluorescence ratio +/- dT70
same,activity,IDCC-E. coli SSB (S92C),2.8 fluorescence ratio +/- dT70
same,activity,[5],1.3 fluorescence ratio +/- dT70
same,activity,[6],3.1 fluorescence ratio +/- dT70
same,activity,IDCC-E. coli SSB (G26C) [7],6.1 fluorescence ratio +/- dT70
same,activity,MDCC-E. coli SSB (G26C),4.9 fluorescence ratio +/- dT70
same,binding signal,IDCC-E. coli SSB (G26C) [8],28 fold Kd vs unlabeled SSB S92C
same,binding result,[9],binds
same,activity,[10],~4.5 fold fluorescence (+/- DNA)

# From patent publication US20110177501, “BIOSENSOR FOR DETECTION AND VISUALISATION OF SINGLE-STRANDED DNA” (MEDICAL RESEARCH COUNCIL, published 2011)
